Reference: paper doi:10.1101/2020.12.15.408237

Target: Staphylococcus aureus FrmB (Staphylococcus aureus Newman)
Assay: SEC

- stoichiometry N: 2
Substance: Staphylococcus aureus FrmB (enzyme)
